Data as given in patent US20020127227A1 (GlaxoSmithKline, published 2002).

Target: T1, recombinant human RHAMM (receptor for hyaluronic acid mediated motility), GST tag removed (human, UniProt O75330-3 1-725, limits assumed)
T1 construct: Any residues left by the linker after thrombin cleavage are not described; The BIAcore text says only 'RHAMM' and 'soluble monomeric RHAMM'; also called soluble monomeric RHAMM
T1 sequence (looked up): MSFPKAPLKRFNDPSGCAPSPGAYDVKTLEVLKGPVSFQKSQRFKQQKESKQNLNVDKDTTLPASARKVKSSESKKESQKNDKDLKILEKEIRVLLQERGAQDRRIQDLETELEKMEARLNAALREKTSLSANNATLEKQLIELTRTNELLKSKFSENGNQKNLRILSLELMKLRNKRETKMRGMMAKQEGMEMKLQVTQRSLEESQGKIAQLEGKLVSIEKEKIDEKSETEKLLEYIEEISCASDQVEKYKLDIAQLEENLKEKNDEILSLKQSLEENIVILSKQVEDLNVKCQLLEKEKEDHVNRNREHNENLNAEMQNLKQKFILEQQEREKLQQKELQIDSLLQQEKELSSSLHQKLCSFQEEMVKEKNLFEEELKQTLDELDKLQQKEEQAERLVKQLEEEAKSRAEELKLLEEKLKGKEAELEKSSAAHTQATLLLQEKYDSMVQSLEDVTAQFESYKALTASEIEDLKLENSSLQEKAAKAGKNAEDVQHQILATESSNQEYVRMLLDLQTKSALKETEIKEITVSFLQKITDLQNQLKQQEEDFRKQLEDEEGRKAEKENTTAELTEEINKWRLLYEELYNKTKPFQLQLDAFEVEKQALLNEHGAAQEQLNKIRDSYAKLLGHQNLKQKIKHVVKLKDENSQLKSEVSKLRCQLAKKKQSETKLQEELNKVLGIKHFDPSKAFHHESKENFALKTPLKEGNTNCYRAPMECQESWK
Experiment: BIAcore SPR, mAb captured on rabbit anti-mouse IgG Fc, RHAMM injected
Protocol: The affinity of the purified mAbs was measured in the BIAcore. Using a flow rate of 10 ul/min, the mAb (diluted in HBS buffer) was injected over a rabbit anti-mouse IgG Fc surface, followed by buffer flow and the RU recorded. RHAMM diluted in HBS buffer was then injected for 180s followed by buffer flow for 150s and regeneration of the sensor chip surface with an injection of 0.1 M phosphoric acid. BIAcore software was used for association and dissociation-phase analysis. The murine monoclonal antibodies bound to soluble monomeric RHAMM. The on-rates (kₐₛₛ) and off-rates (kdiss) were calculated.

B1: murine monoclonal antibody 16E10 (antibody, V domains shown)
VH: QVQLKESGPGLVAPSQSLSITCTVSGFSLTGYGVNWVRQPPGKGLEWLGMIWVDGGTDYNSALKSRLSISKDNSKSQVFLKMNSLQTDDTARYYCARGGSSLLGFAYWGQGTLVTVSA
VL: DIQMTQTTSSLSASLGDRVTISCRASQDISNYLNWYQQKPDGTVKLLIYYTSRLHSGVPSRFSGSGSGTDYSLTISNLEQEDIATYFCQQGNTLPRTFGGGTKLEIKR
modifications: N-terminus of the heavy chain blocked with pyroglutamic acid
notes: The rest is mouse IgG with a kappa light chain (amplified with mouse IgG CH1 and C kappa primers); also called mAb 16E10; ATCC 16E10
Kd: 470 pM
